From patent US20250333481A1

Target: chimeric receptor consisting of extracellular domain of BDNF receptor TrkB and transmembrane domain and cytoplasmic domain of thrombopoietin receptor c-Mpl
Experiment: cell-based or functional assay

EC50, cell proliferation of BaF/TrkB·c-Mpl chimera cells (MTS, absorbance at 490 nM): 1.19 nM
Substance: recombinant wild-type hBDNF (Abcam) (from UniProt P23560 129-247) (ligand)
